± gives the standard deviation.

This data set in a line: protein stability index of a GFP-peptide fusion (GPS, HEK-293T) (PSI 1-6); higher = more stable. Conditions: c terminus: a fixed tail appended.
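Note: 24-mer peptide tiles fused after GFP, lentivirally expressed, FACS-sorted into six equal bins by GFP/DsRed ratio, decoded by Illumina sequencing, PSI is the read-weighted mean bin number.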

Regarding RRNPELQEELQIQAAVAAGDVHTV [ASB7], the protein stability index was determined as 4.85 ± 0.18 (treatment: DMSO) and 4.82 ± 0.16 (treatment: MLN4924 1 uM, 8 h).
The matching figures for RRRGPRNKKRGWRRLAQEPLGLEV [NOP53]: 3.65 ± 0.18 and 3.73 ± 0.4.
As to RRSRDPGYDHLWDETLSSSHQKCP [PLEKHN1], the protein stability index by setting is: (treatment: DMSO) 3.81 ± 0.32; (treatment: MLN4924 1 uM, 8 h) 4.04 ± 0.13.
The matching figures for RRTRPRHHHGRSRPDRSSQGGSLP [CHGB]: 4.93 ± 0.36 and 5.07 ± 0.23.
The matching figures for RSIPDTQLEQVIESQKANQCAVLI [ACSBG2]: 3.54 ± 0.14 and 3.67 ± 0.47.
The corresponding values for RSPSGSLRSARGSRGGTRGWLPSH [RBMY1A1] are 3.95 ± 0.18 and 4.07 ± 0.17.
On to RSYIKLFQAPCQRCGKFLQDGLPP [MED27], for which the protein stability index is, setting by setting: (treatment: DMSO) 2.19 ± 0.17; (treatment: MLN4924 1 uM, 8 h) 2 ± 0.1.
As for RTIVKGYNENVYTEDGKLDIWSKS [MED27], the protein stability index reads like this: (treatment: DMSO) 3.84 ± 0.35; (treatment: MLN4924 1 uM, 8 h) 3.91 ± 0.3.
The corresponding values for RTMLDFPQHVSSDKEVRAASTEAD [NLN] are 5.55 ± 0.23 and 4.74 ± 1.4.
On to RTPEILKKALSGLSSRWKNWWIRG [CDS1], for which the protein stability index by setting is: (treatment: DMSO) 2.49 ± 0.86; (treatment: MLN4924 1 uM, 8 h) 2.26 ± 0.73.
The matching figures for RTPSAFPQTPAAPPATLGEGSADT [EHMT1]: 5.3 ± 0.21 and 5.25 ± 0.12.
The matching figures for RVGQWVRMENVTVLGEDVIVNDEL [GMPPB]: 4.01 ± 0.066 and 4.07 ± 0.24.
On to RVLRGRPGAGSRRRGRMALCGQAA [FBXO33], for which the protein stability index stood at 4 ± 0.18 (treatment: DMSO) and 4.74 ± 0.22 (treatment: MLN4924 1 uM, 8 h).
The corresponding values for RVQGVLRGRAREREQLQAEASERF [HES6] are 4.39 ± 0.32 and 4.48 ± 0.25.
The matching figures for RVVSWLVSAEGSHPDPAPFCADNP [DVL3]: 2.35 ± 0.3 and 2.58 ± 0.24.
The corresponding values for RWCCCCGERETRTPEELTILGETQ [CLCN6] are 3.76 ± 0.27 and 3.79 ± 0.18.
For the sequence RYLVGEHQADLEVANRHGHTCLMI [FEM1A], the protein stability index (treatment: DMSO) worked out at 2.19 ± 0.42 and the protein stability index (treatment: MLN4924 1 uM, 8 h) was determined as 2.38 ± 0.24.
Take SAGSPPELQGLPELHEECEGNHPS [NET1]: the protein stability index is 5.46 ± 0.17 (treatment: DMSO) and 5.56 ± 0.16 (treatment: MLN4924 1 uM, 8 h).
Under “treatment: MLN4924 1 uM, 8 h”, SAKTRQRVEDAFYTLVREIRQYRL [KRAS] returned a protein stability index of 2.31 ± 0.4.
SASSIKQILLEWCRSKTLGYQHVD [SMTNL2]: the protein stability index was determined as 2.22 ± 0.19 (treatment: DMSO) and 2.42 ± 0.35 (treatment: MLN4924 1 uM, 8 h).
For the sequence SAVARSNSWMGSQGPMSQRRENYG [RBMY1A1], the protein stability index came out at 3.68 ± 0.43 (treatment: DMSO) and 3.96 ± 0.5 (treatment: MLN4924 1 uM, 8 h).
The matching figures for SCIGNKQKAVKSCLVCQASFCELH [TRIM29]: 3.51 ± 0.16 and 3.79 ± 0.34.
For the sequence SDTTPLPSWAALNSSTWGSLKQAL [SNX8], the protein stability index reads like this: (treatment: DMSO) 2.7 ± 0.2; (treatment: MLN4924 1 uM, 8 h) 2.94 ± 0.12.
In the case of SEDLDGHSDPEESFARDLPDFPSI [RETREG3], the protein stability index runs as follows: (treatment: DMSO) 5.33 ± 0.2; (treatment: MLN4924 1 uM, 8 h) 5.13 ± 0.45.
The matching figures for SEEALRADGFGDNPFYHCLVAEIL [SAT2]: 3.08 ± 0.24 and 3.26 ± 0.25.
The matching figures for SEEMIAEFKAAFDMFDADGGGDIS [TNNC2]: 5.16 ± 0.32 and 5.11 ± 0.43.
The corresponding values for SEEQVSKNLFGPPLESAFDHEDFT [FCHO1] are 5.22 ± 0.4 and 5.26 ± 0.21.
SEREANDALNAYVCKGLPQHEEIC [INTS3]: the protein stability index runs as follows: (treatment: DMSO) 4.56 ± 0.23; (treatment: MLN4924 1 uM, 8 h) 4.52 ± 0.25.
With SFFYPVLFVLFMFFGMAFNFIVND [SOAT1], the protein stability index by setting is: (treatment: DMSO) 2 ± 0.2; (treatment: MLN4924 1 uM, 8 h) 1.96 ± 0.32.
The corresponding values for SFSEETEKKFEHFSGLLNNQLSPQ [LOXL2] are 4.09 ± 0.47 and 4.56 ± 0.18.
The matching figures for SFSNYRPFEPQALGLSPSWRLTGF [SEPHS2]: 1.95 ± 0.2 and 2.01 ± 0.42.
On to SFVYVNPEDGRIFAQRTFDYELLQ [PCDHGC5], for which the protein stability index reads like this: (treatment: DMSO) 2.2 ± 0.26; (treatment: MLN4924 1 uM, 8 h) 2.56 ± 0.28.
The corresponding values for SGETWNPLKLHYQLRNVRERLAKN [GOLPH3] are 2.87 ± 0.54 and 3.03 ± 0.21.
The corresponding values for SGKELKIDIIPNPQERTLTLVDTG [HSP90AB1] are 3.98 ± 0.42 and 3.58 ± 0.48.
SGTMGAAKVTGEVLDILTRLPESV [FLOT1] came in with a protein stability index (treatment: DMSO) of 3.64 ± 0.38 and a protein stability index (treatment: MLN4924 1 uM, 8 h) of 3.71 ± 0.24.
The matching figures for SHSKAPSGSQMSHNAVTSHQRPGW [NCF4]: 3.88 ± 0.23 and 4.05 ± 0.22.
The matching figures for SINQRLNKRERSKLKNLRRKQRRR [RNF180]: 3.9 ± 0.14 and 3.93 ± 0.24.
The matching figures for SKFRRKDREDSPERCSDSDEEKKA [CLINT1]: 5.43 ± 0.27 and 5.47 ± 0.14.
With SKLAQLTLEQILEHLDNLRLNLTN [INTS3], the protein stability index by setting is: (treatment: DMSO) 2.3 ± 0.39; (treatment: MLN4924 1 uM, 8 h) 2.2 ± 0.21.
Turning to SKSNLGWTPLHLACYFGHRQVVQD [OSBPL1A], the protein stability index stood at 2.62 ± 0.6 (treatment: DMSO) and 2.12 ± 0.55 (treatment: MLN4924 1 uM, 8 h).
The matching figures for SKYLLEEWFQNCYARYHQAFADRD [TEKT4]: 2.48 ± 0.24 and 2.15 ± 0.25.
The matching figures for SLAAFSVISVVSYLILALLSVTIS [RTN3]: 3.41 ± 0.21 and 2.8 ± 0.19.
The corresponding values for SLAEVRVGYQSQNISCFFRLVDRD [MYORG] are 2.42 ± 0.24 and 2.45 ± 0.26.
Consider SLEISPQNVDVNVHPTKHEVHFLH [MLH1], for which the protein stability index is, setting by setting: (treatment: DMSO) 3.46 ± 0.23; (treatment: MLN4924 1 uM, 8 h) 3.63 ± 0.32.
The matching figures for SLESEEEEYPGITAEDSNDIYILP [BCL2L13]: 5.06 ± 0.22 and 5.05 ± 0.23.
The corresponding values for SLFKLKPLSNKTATDDTGGKDPRN [PLD5] are 4.44 ± 0.54 and 4.65 ± 0.11.
The corresponding values for SLGQLPLPPIPHVFSAGTGSAILP [PLAGL1] are 2.82 ± 0.28 and 3.07 ± 0.22.
Regarding SLIPPRSEQLVNFTGKAEMGGPFS [TMEM106C], the protein stability index worked out at 3.65 ± 0.34 (treatment: DMSO) and 3.47 ± 0.3 (treatment: MLN4924 1 uM, 8 h).
As to SLKKGSLVKNLKDTLGLGKTRRKT [NCK2], the protein stability index (treatment: DMSO) amounted to 3.96 ± 0.18 and the protein stability index (treatment: MLN4924 1 uM, 8 h) stood at 3.81 ± 0.31.
The matching figures for SLKLKSSHHSKHKAPSKLGLIISG [DLC1]: 2.66 ± 0.072 and 2.77 ± 0.55.
Consider SLKQALKGLSVEFALLADKAAQQG [SNX8], for which the protein stability index was 2.32 ± 0.18 (treatment: DMSO) and 2.52 ± 0.31 (treatment: MLN4924 1 uM, 8 h).
The corresponding values for SLLVLIEPVAAGSGIPEVKCYLNG [CLCN6] are 1.99 ± 0.92 and 2.44 ± 0.43.
Consider SLQRWEHLKKVASRYQNNIKNDKY [PRIM1], for which the protein stability index turned out to be 2.47 ± 0.25 (treatment: DMSO) and 2.91 ± 0.56 (treatment: MLN4924 1 uM, 8 h).
The matching figures for SLQSTGKCLLYCNGVLEPLYLCPN [SLC25A39]: 2.03 ± 0.34 and 2.21 ± 0.5.
The corresponding values for SLRLWDTFGDHHKDRRFAYGRSDV [RHOBTB1] are 2.87 ± 0.38 and 2.92 ± 0.24.
The matching figures for SMSSRLSIYDNVPGSILYSSSGDL [DLC1]: 3.24 ± 0.089 and 3.13 ± 0.22.
For SNHVDDFTTFRGTELSFLVTTHQP [EDNRA], the protein stability index by setting is: (treatment: DMSO) 2.61 ± 0.4; (treatment: MLN4924 1 uM, 8 h) 2.8 ± 0.4.
The corresponding values for SNSLAIAILMKAYQRFRQKSKASF [PTGFR] are 2.1 ± 0.25 and 2.23 ± 0.19.
The corresponding values for SPDSPKGSSETETEPPVALAPGPA [ESRRA] are 5.56 ± 0.31 and 5.63 ± 0.12.
Regarding SPEARDARSPSGPSGSLENGTKAD [TRIM29], the protein stability index was determined as 5.36 ± 0.44 (treatment: DMSO) and 5.61 ± 0.18 (treatment: MLN4924 1 uM, 8 h).
The corresponding values for SPQSGSILTEETEVKGTLEGDVCG [PBXIP1] are 5.59 ± 0.11 and 5.33 ± 0.35.
The matching figures for SQEAGLPAGAGPSPTFPALGIGMD [SEPHS2]: 4.64 ± 0.22 and 4.65 ± 0.25.
On to SQEEGKSALEDQGSNPSSSNSSQD [PPFIA4], for which the protein stability index came out at 5.67 ± 0.16 (treatment: DMSO) and 5.62 ± 0.28 (treatment: MLN4924 1 uM, 8 h).
The matching figures for SQELPPPDPGPSPEASHLRFRRFR [ZNF263]: 4.76 ± 0.21 and 5.14 ± 0.12.
The corresponding values for SQGEVEKLIKCDEIQVDSEEPVFE [KLHL12] are 5.23 ± 0.4 and 5.47 ± 0.25.
For SQPPKKKPKTTNIELQGVPNDEVH [RBBP5], the protein stability index amounted to 5.32 ± 0.2 (treatment: DMSO) and 5.28 ± 0.14 (treatment: MLN4924 1 uM, 8 h).
The corresponding values for SRHLNSQVKKTTTRWCHIVRDSDS [PHTF1] are 2.33 ± 0.54 and 3.15 ± 0.66.
The corresponding values for SRLWDSRLRHYLGSRYDARRGVSD [DNAAF3] are 3.09 ± 0.33 and 3.23 ± 0.18.
The corresponding values for SSCCLHICQGIRGLWGTTLTENTA [PKD2L1] are 2.07 ± 0.21 and 1.97 ± 0.24.
As to SSDMMDSSSFSNLDLSEEDSDDPS [VDR], the protein stability index by setting is: (treatment: DMSO) 5.66 ± 0.25; (treatment: MLN4924 1 uM, 8 h) 5.63 ± 0.26.
With SSEDYRQLELVILQSEPHRAGVQW [KCNK9], the protein stability index (treatment: DMSO) was determined as 2.41 ± 0.19 and the protein stability index (treatment: MLN4924 1 uM, 8 h) came to 2.38 ± 0.29.
The matching figures for SSENFDDYMKEVGVGFATRKVAGM [FABP4]: 3.27 ± 0.1 and 3.55 ± 0.3.
The corresponding values for SSGAGSSPPAAPCPPPPGPAAAPE [ZBED3] are 5.36 ± 0.24 and 5.35 ± 0.085.

These data come from the supplement of paper PMC10567573.
